Experimental findings from patent US20040086988 are described below.

Data set [1] has as its system D-isomer of the substrate Ac-Thr-Ile-Nle-Nle-Gln-Arg.amide.
In data set [2] the test system is L-isomer of the substrate Ac-Thr-Ile-Nle-Nle-Gln-Arg.amide.
Data set [3] concerns D-fluorogenic substrate 2-aminobenzoyl-Thr-Ile-Nle-Phe(p-NO2)-Gln-Arg.amide.
Data set [4] concerns L-fluorogenic substrate 2-aminobenzoyl-Thr-Ile-Nle-Phe(p-NO2)-Gln-Arg.amide.

Consider D-[Aba^67.95(CO-S)^51-52]2 HIV-1 PR, for which the “cleavage of hexapeptide substrate (RP HPLC, products identified by ion spray MS)” value in data set [1] is “The D-enzyme cleaves only the D-substrate”; in data set [2], “is inactive on the L-substrate”. The “cleavage of the chiral fluorogenic substrate (fluorogenic assay, corresponding chiral substrate)” value in data set [3] was “the cleavage of chiral fluorogenic substrates by the D- and L-HIV-1 PR analogues”.
Turning to “D-[Aba^67.95.167.195]HIV-1 protease (HIV-1 PR)”, the “cleavage of fluorogenic substrate (increase in fluorescence)” value in data set [4] was “the D-enzyme cleaved only the corresponding D-substrate (L-substrate not cleaved)”; in data set [3] it was “the D-enzyme cleaved only the corresponding D-substrate”.
Turning to L-[Aba^67.95(CO-S)^51-52]2 HIV-1 PR, the figures for the “cleavage of hexapeptide substrate (RP HPLC, products identified by ion spray MS)” value in data set [1] and in data set [2] were “is inactive towards the D-substrate” and “the L-enzyme shows full activity towards the L-substrate”, respectively. In addition, the “cleavage of the chiral fluorogenic substrate (fluorogenic assay, corresponding chiral substrate)” value in data set [4] is “the cleavage of chiral fluorogenic substrates by the D- and L-HIV-1 PR analogues”.
As for “L-[Aba^67.95.167.195]HIV-1 protease (HIV-1 PR)”, the “cleavage of fluorogenic substrate (increase in fluorescence)” value is reported as “the L-enzyme cleaved only the L-substrate” in data set [4] and “the L-enzyme cleaved only the L-substrate (D-substrate not cleaved)” in data set [3].
